Consider three molecules from paper PMC11350156.

Data set [1] addresses T1, 6xHis-IE2(87-579) (Human cytomegalovirus, UniProt Q6SWP7 87-579).
T1 sequence: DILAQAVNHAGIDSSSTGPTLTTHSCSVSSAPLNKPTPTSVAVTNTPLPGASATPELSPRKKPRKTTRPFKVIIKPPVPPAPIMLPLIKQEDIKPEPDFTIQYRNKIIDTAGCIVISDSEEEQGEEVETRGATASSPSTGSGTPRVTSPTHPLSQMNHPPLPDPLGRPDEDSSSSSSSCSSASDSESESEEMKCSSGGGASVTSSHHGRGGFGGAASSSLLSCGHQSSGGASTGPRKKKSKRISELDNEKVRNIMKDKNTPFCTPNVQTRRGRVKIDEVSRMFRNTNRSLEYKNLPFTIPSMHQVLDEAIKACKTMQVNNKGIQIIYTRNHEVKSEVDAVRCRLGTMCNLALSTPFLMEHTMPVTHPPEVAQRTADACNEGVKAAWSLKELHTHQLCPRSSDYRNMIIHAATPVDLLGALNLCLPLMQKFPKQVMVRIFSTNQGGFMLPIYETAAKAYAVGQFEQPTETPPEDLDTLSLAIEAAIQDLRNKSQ
Put plainly: ELISA. (In general: An ELISA detects its analyte on a solid surface through an enzyme-linked reagent.)

Data set [2] concerns the target T2, UL84-6xHis (Human cytomegalovirus, UniProt P16727 1-586).
T2 sequence: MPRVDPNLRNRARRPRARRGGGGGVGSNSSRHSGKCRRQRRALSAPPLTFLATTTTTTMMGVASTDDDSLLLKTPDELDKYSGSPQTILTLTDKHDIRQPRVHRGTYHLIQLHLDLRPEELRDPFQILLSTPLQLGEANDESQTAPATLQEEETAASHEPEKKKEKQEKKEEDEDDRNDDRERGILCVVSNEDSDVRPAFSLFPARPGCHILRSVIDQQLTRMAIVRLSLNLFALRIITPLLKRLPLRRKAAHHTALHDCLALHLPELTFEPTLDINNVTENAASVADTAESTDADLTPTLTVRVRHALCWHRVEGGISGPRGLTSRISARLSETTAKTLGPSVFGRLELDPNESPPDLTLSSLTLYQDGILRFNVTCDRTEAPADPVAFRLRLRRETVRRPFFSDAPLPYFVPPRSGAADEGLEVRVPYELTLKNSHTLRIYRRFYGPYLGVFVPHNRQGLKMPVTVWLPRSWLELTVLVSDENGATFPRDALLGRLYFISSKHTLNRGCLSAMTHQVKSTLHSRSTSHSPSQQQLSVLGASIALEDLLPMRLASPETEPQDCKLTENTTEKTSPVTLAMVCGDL
Put plainly: ELISA.

The target of data set [3] is T3, 6xHis-UL44(1-290) (Human cytomegalovirus, UniProt P16790 1-290). The data set is described as follows: ELISA.
In data set [4] the target is T1, 6xHis-IE2(87-579). Put plainly: pull-down immunoblot. A general note: A western blot detects proteins with antibodies after separation by electrophoresis.
In data set [5] the target is T2, UL84-6xHis. The data set is described as follows: pull-down immunoblot.
Data set [6] concerns the target T3, 6xHis-UL44(1-290). The data set is described as follows: pull-down immunoblot.
Data set [7] has as its target T1, 6xHis-IE2(87-579). Put plainly: pull-down.
The target of data set [8] is T2, UL84-6xHis. The data set is described as follows: pull-down.
For data set [9], the target named is T3, 6xHis-UL44(1-290). Put plainly: pull-down.

T3 sequence (P16790 1-290): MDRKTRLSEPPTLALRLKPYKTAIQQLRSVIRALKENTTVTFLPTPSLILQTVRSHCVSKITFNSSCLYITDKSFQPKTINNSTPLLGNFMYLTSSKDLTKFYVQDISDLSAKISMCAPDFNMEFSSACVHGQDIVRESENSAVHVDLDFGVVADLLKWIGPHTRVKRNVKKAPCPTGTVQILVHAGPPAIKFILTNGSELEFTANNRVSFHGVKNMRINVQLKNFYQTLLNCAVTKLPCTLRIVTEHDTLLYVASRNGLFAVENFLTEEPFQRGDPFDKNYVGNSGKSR

On to AAGGGGGGGGGTGAGGGGGGGGGGTT (structured_DNA) [oriG4-1], for which the Kd in the data set with 6xHis-IE2(87-579) [1] turned out to be 123 nM; with UL84-6xHis [2] it was 14.2 nM; in the data set with 6xHis-UL44(1-290) [3], 25.5 nM.
AAGGGAAAGGGTGAGGGGGGGGGGTT (structured_DNA) [oriG4-1 L1]: the binding result with 6xHis-IE2(87-579) [4], with UL84-6xHis [5] and with 6xHis-UL44(1-290) [6] was “binds” in each case.
As to AAGGAGAGAGGTGAGGAGGAAAGGTT (ssDNA) [oriG4-1m], the binding result with 6xHis-IE2(87-579) [7], with UL84-6xHis [8] and with 6xHis-UL44(1-290) [9] was “no binding” throughout.

Broadly, the Kd is a measure of binding affinity in units of concentration.
